We go through one substance from patent US20200369776A1.

In this experiment the target is full-length monkey CD137 on the cell surface (cynomolgus monkey). Nature of the experiment: flow cytometry, PMA + ionomycin activated cynomolgus T cells, antibody at 100 nM (Example 4d), Alexa Fluor 647 anti-human Fc; SSC-H against antibody binding. For orientation: A flow cytometer gives signals particle by particle.
Chain of full-length monkey CD137 on the cell surface (cynomolgus monkey) (Q07011 other isoform, or with tags, fused parts or gaps): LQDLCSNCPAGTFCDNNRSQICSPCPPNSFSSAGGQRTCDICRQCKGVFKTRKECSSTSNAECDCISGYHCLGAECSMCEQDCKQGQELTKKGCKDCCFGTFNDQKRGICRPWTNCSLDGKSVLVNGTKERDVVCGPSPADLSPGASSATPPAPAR

Turning to human IgG4 isotype control antibody, the percent of cells in the lower right (antibody-positive) quadrant stood at 1.5%.
